Assay results from EP1257648B2 (AMGEN INC., dated 2016).
“And” between values parts separate entries of the source, which are not always exact repeats. Equal entries are not always repeated.

T1: human OPGbp[143-317] (human, UniProt O14788 143-317)
T1 sequence (looked up): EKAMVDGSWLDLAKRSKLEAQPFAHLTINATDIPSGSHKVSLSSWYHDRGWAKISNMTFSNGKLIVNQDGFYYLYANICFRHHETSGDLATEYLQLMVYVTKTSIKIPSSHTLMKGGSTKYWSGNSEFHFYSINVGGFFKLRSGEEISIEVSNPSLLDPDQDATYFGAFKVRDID


Target: T1, human OPGbp[143-317]
Test: cell-based or functional assay

| IC50, murine bone marrow osteoclast formation assay (TRAP, pNPP) [nM] | IC50, bone marrow assay (TRAP) | IC50, RAW cell assay (TRAP), positive control [mg/L] | Binder | IC50, RAW cell assay (TRAP) | IC50, murine bone marrow assay (TRAP) |
| --- | --- | --- | --- | --- | --- |
| 57.8 | – | – | Fab "AT" (Fab, V domains shown) VH: QVQLVQSGAEVRKPGASVKVSCKASGYDFSNYAIHWVRQAPGQRLEWMGWINAGNGNTKFSQKFQGRITVTRDTAASTAYMELRSLRSEDTAVYYCARDSSNMVRGIIIAYYFDYWGQGTLVTVSS VL: EIVMTQSPSSLSASVGDRVTITCRASQSISRYLNWYQLKPGKAPRLLIYGASSLQSGVPSRFSGSGSGAEFTLTISSLQPEDIATYYCQHTRAFGQGTKVEIKR | 15 µg/ml and 300 nM | – |
| – | 2.35 µg/ml and 14.4 nM | – | "AT" antibody (antibody, V domains shown) VH: QVQLVQSGAEVRKPGASVKVSCKASGYDFSNYAIHWVRQAPGQRLEWMGWINAGNGNTKFSQKFQGRITVTRDTAASTAYMELRSLRSEDTAVYYCARDSSNMVRGIIIAYYFDYWGQGTLVTVSS VL: EIVMTQSPSSLSASVGDRVTITCRASQSISRYLNWYQLKPGKAPRLLIYGASSLQSGVPSRFSGSGSGAEFTLTISSLQPEDIATYYCQHTRAFGQGTKVEIKR | 60.3 nM and 21.4 nM and 3 ug/ml and 9 ug/ml and 3.2 ug/ml and 20.1 nM | 2.15 ug/ml and 14.4 nM and 1.85 ug/ml and 12.5 nM |
| – | – | 0.033 | human OPG [22-194]-Fc (Fc fusion, UniProt O00300 22-194, looked up, not shown: a dimerising Fc or GST) ETFPPKYLHYDEETSHQLLCDKCPPGTYLKQHCTAKWKTVCAPCPDHYYTDSWHTSDECLYCSPVCKELQYVKQECNRTHNRVCECKEGRYLEIEFCLKHRSCPPGFGVVQAGTPERNTVCKRCPDGFFSNETSSKAPCRKHTNCSVFGLLLTQKGNATHDNICSGNSESTQK | – | – |
